Source: US20260098061A1, “EPHA2-BINDING PENDING PEPTIDE AND COMPOSITION COMPRISING SAME” (PeptiDream Inc., priority 2022, published 2026)
Each block holds one binder with its values, some of them ahead of it. Numbered stars: 1 amine (or outer) side, 2 acyl side, 3 side chain; on linkers, the order of the positions; unused ones are H or OH. Bridge positions count the residues as written; N and C are the ends. Square brackets hold non-standard residues; d marks the D form. Primed or numbered codes have the meaning given here. Qglucamine = (2S)-2-amino-4-{[(2S,3R,4R,5R)-2,3,4,5,6-pentahydroxyhexyl]carbamoyl}butanoic acid, O=C(CC[C@H](N[*:1])C(=O)[*:2])NC[C@H](O)[C@@H](O)[C@H](O)[C@H](O)CO; KCOpipzaa″ = (2S)-2-amino-6-{[4-(carboxymethyl)piperazine-1-carbonyl]amino}hexanoic acid, O=C(NCCCC[C@H](N[*:1])C(=O)[*:2])N1CCN(CC(=O)[*:3])CC1; Hgn″ = (2S)-2-amino-5-carbamoylpentanoic acid (homoglutamine), NC(=O)CCC[C@H](N[*:1])C(=O)[*:2]; Hgn(3) = 2-amino-5-carbamoylpentanoic acid (homoglutamine), NC(=O)CCC[C@H](N[*:1])C(=O)[*:2]; Hgn = (2S)-2-amino-5-carbamoylpentanoic acid, NC(=O)CCC[C@H](N[*:1])C(=O)[*:2]; Trp(1-Me,7-Cl) = Cn1cc(C[C@H](N)C(=O)O)c2cccc(Cl)c21; dPhe(3-CONH2) = NC(=O)c1cccc(C[C@@H](N)C(=O)O)c1; Trp(1-Me) = Cn1cc(C[C@H](N)C(=O)O)c2ccccc21; NMe3Pal = CN[C@@H](Cc1cccnc1)C(=O)O; NMeF = CN[C@@H](Cc1ccccc1)C(=O)O; hArg = N=C(N)NCCCC[C@H](N)C(=O)O; hCit = NC(=O)NCCCC[C@H](N)C(=O)O; Gly(cBu) = N[C@H](C(=O)O)C1CCC1; NMeE = CN[C@@H](CCC(=O)O)C(=O)O

Target: T1, Recombinant Human EphA2 Fc Protein (Fc tag, Elabscience) (human, UniProt P29317 24-534)
T1 construct: Bought protein (Elabscience), captured with the Human Antibody Capture kit; also called hEphA2; not shown: Fc tag of the commercial protein
Experiment: SPR Biacore T200, EphA2-Fc captured, single-cycle kinetics; grade, legend 0 < A ≤ 1 nM
Procedure: The HBS-P+ buffer (10 mM HEPES (pH7.4), 150 mM NaCl, 0.05% (v/V) Surfactant P20) containing 1% DMSO was used as running buffer. Recombinant Human EphA2 Fc Protein (Fc tag, Elabscience) was captured by Human Antibody Capture kit (Cytiva). Peptide samples in DMSO were diluted with running buffer, and prepared five serial dilutions. Using these serial dilutions, kinetics of peptides against EphA2 was measured at a flow rate of 30 mL/min at 25° C. The method adopted for sample measurement was a single-cycle kinetics method. The analysis was conducted using the evaluation software 3.0 provided with Biacore T200. Kinetics fitting was done on the difference data obtained by subtracting the baseline data from sample measurement data. KD values were calculated based on the association rate constant (ka) and dissociation rate constant (kd).

T1 sequence (P29317 24-534 limits assumed): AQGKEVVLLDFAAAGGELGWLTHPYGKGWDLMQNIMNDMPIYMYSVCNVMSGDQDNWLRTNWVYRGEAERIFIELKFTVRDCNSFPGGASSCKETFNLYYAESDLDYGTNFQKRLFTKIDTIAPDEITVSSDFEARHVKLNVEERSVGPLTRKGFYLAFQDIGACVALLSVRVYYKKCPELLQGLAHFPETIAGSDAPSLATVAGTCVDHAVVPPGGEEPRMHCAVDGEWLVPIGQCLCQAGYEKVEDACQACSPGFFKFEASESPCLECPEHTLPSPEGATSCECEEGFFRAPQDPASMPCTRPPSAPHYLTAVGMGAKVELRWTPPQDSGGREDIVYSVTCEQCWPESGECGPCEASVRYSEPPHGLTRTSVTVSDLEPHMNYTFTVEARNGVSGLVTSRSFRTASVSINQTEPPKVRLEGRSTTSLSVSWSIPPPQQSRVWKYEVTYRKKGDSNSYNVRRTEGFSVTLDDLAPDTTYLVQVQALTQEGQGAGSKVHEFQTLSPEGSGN

- Kd: ≤ 1 nM
B1: PDC_EphA2-00019438 (peptide)
peptide: {CH2CO}-[dPhe(3-CONH2)][NMe3Pal]N[Gly(cBu)][Hgn″][NMe3Pal][Trp(1-Me,7-Cl)][KCOpipzaa″][Trp(1-Me)]T[Hgn″]C-NH2
modifications: thioether N-12
SMILES: C[C@@H](O)[C@@H]1NC(=O)[C@H](Cc2cn(C)c3ccccc23)NC(=O)[C@H](CCCCNC(=O)N2CCN(CC(=O)O)CC2)NC(=O)[C@H](Cc2cn(C)c3c(Cl)cccc23)NC(=O)[C@H](Cc2cccnc2)N(C)C(=O)[C@H](CCCC(N)=O)NC(=O)[C@H](C2CCC2)NC(=O)[C@H](CC(N)=O)NC(=O)[C@H](Cc2cccnc2)N(C)C(=O)[C@@H](Cc2cccc(C(N)=O)c2)NC(=O)CSC[C@@H](C(N)=O)NC(=O)[C@H](CCCC(N)=O)NC1=O

- Kd: ≤ 1 nM
B2: PDC_EphA2-00019427 (peptide)
peptide: {CH2CO}-[dPhe(3-CONH2)][NMeF]N[Gly(cBu)][Hgn(3)][NMeE][Trp(1-Me,7-Cl)][hCit][Trp(1-Me)]T[hArg]C-NH2
modifications: thioether N-12

- Kd: ≤ 1 nM
B3: PDC_EphA2-00019437 (peptide)
peptide: {CH2CO}-[dPhe(3-CONH2)][NMe3Pal]N[Gly(cBu)][Hgn][NMe3Pal][Trp(1-Me,7-Cl)][Qglucamine][Trp(1-Me)]T[Hgn]C-NH2
modifications: thioether N-12
SMILES: C[C@@H](O)[C@@H]1NC(=O)[C@H](Cc2cn(C)c3ccccc23)NC(=O)[C@H](CCC(=O)NC[C@H](O)[C@@H](O)[C@H](O)[C@H](O)CO)NC(=O)[C@H](Cc2cn(C)c3c(Cl)cccc23)NC(=O)[C@H](Cc2cccnc2)N(C)C(=O)[C@H](CCCC(N)=O)NC(=O)[C@H](C2CCC2)NC(=O)[C@H](CC(N)=O)NC(=O)[C@H](Cc2cccnc2)N(C)C(=O)[C@@H](Cc2cccc(C(N)=O)c2)NC(=O)CSC[C@@H](C(N)=O)NC(=O)[C@H](CCCC(N)=O)NC1=O
